This note sets out measurements from the DeepSol protein solubility set.

The nature of the series: soluble on expression in E. coli; label from the status in PepcDB or PDB records.
Turning to “MAAVDVNQPITGHKSAIIRNYNTNPRLIYQTVCGVNGPLVILNDVKFPQFSEIVKITLPDGSKRSGQVLEISKNKAVVQVFEGTSGIDAKNTICEFTGDILRTPVSEDMLGRIFNGSGKPIDKGPPVLAEDFLDINGQPINPWSRIYPEEMIQTGISAIDVMNSIARGQKIPIFSASGLPHNEIAAQIVRQGGLVQLPDRPHEQTNFAIVFAAMGVNMETARFFKQDFEENGSMENVCLFLNLANDPTIERIITPRIALTSAEFLAYQCKKHVLVVLTDMSSYAEALREVSAAREEVPGRRGFPGYMYTDLATIYERAGRVEGRDGSITQIPILTMPNDDITHPIPDLTGYITEGQIYVDRQLHNRLIYPPINVLPSLSRLMKSAIGEGMTREDHSDVSNQLYACYAIGKDVQAMKAVVGEEALSSDDLLYLEFLTKFEKNFITQGHYENRSVFESLDIGWQLLRIFPREMLKRIPESTLEKYYPRGGAKE”, the “soluble on expression in E. coli” value is reported as “not soluble”.

As for “MVPELMFDEPRPGRPPRHLADLDAAGRASAVAELGLPAFRAKQLAHQYYGRLIADPRQMTDLPAAVRDRIAGAMFPNLLTASADITCDAGQTRKTLWRAVDGTMFESVLMRYPRRNTVCISSQAGCGMACPFCATGQGGLTRNLSTAEILEQVRAGAAALRDDFGDRLSNVVFMGMGGAAGQLRQGVGRSSAHYRAAAVRFRDFGPRGDGVDGGSGPCYPQPCRRAARRDPGAVAARPRRRVARYTSSGQQPVEDQRSARCGPVLRQCDRATGVY”, the “soluble on expression in E. coli” value was “soluble”.

With “MDLSQLTPRRPYLLRAFYEWLLDNQLTPHLVVDVTLPGVQVPMEYARDGQIVLNIAPRAVGNLELANDEVRFNARFGGIPRQVSVPLAAVLAIYARENGAGTMFEPEAAYDEDTSIMN”, the “soluble on expression in E. coli” value is “soluble”.

For “MGSDKIHHHHHHEEPVGEFLPGQVESEENIEGIVTGAYAVLDGYYASDAINSGCSNWQFGDVVSDDAYKGGGGTGDQNQIHLMEIFNANPTGIDFEARWAALYEGIKRCNQAIRLLNGSEVKNKEQRLAEMRFLRGHYYFNLKIIYNQIPWIDETLVDPNEYNKKSNIEFSSDQLWEKILEEFSAAYKVLPESQADYGRPTKMAARAYMAKVYLYQSKWKECLEACDEVIQSGKYELFPDFRNVFLPENDNCSEIIFAIQLSINDGSPNNENGSYGDRLLPPGGPYPVYGFLRPTQNLVNAYKTDVKGLPYNDGKDVSENDYVDVRLDHTLARPNIPFMDVQLYDWTPREASVYGPYSPKKRLVSLNSTYYSPIWPYVNALNFYVIRYADLLLWRAEAAIETGDLETGRKYINMIRERAKNTQHVKTMDQSQDAANYKVGVYDEPFKSKNEAVQALRMERRLEMAHEGIRFFDLVRWGVADEVINAYIAKEKVFRSHLQNAHFVKGKHEYFPIPQSMIDICGTEVMKQNPGY”, the “soluble on expression in E. coli” value is “not soluble”.

In the case of “SIEKIWAREILDSRGNPTVEVDLYTAKGLFRAAVPSGASTGIYEALELRDGDKQRYLGKGVLKAVDHINSTIAPALISSGLSVVEQEKLDNLMLELDGTENKSKFGANAILGVSLAVCKAGAAERELPLYRHIAQLAGNSDLILPVPAFNVINGGSHAGNKLAMQEFMILPVGAESFRDAMRLGAEVYHTLKGVIKDKYGKDATNVGDEGGFAPNILENSEALELVKEAIDKAGYTEKIVIGMDVAASEFYRDGKYDLDFKSPTDPSRYITGDQLGALYQDFVRDYPVVSIEDPFDQDDWAAWSKFTANVGIQIVGDDLTVTNPKRIERAVEEKACNCLLLKVNQIGSVTEAIQACKLAQENGWGVMVSHRSGETEDTFIADLVVGLCTGQIKTGAPCRSERLAKYNQLMRIEEELGDEARFAGHNFRNPSVLHHHHHH”, the “soluble on expression in E. coli” value is listed as “soluble”.

In the case of “MGSSHHHHHHGKTIFVIVPTNEEQVAFLEALAKQDELNFDWQNPPTEPGQPVVILIPSDMVEWFLEMLKAKGIPFTVYVEEGGSENLYFQGGGGGGLASGSSSAEGGAKRFSRQQIIQHVKKSLLYTAFDVRWVPQTASFAVVGQYPNNHGALSVYQLHHGDVQPTVEVRLPHPLKCCTFGHNISFSSSGSGSGGNSSSITAANATMNQIATGDFAGSLQIFDLSRLGSTPPSAPNALSDVTAASVLHIPHAHESIINAIDGARYSGPPEVATGSRDGSVKVWDTRQSNKPVVSLNPADPARARDCWTVRLGNSFDPDERVVAAGYDNGDVKIFDLRTQKMLHEMHVNNGVCDLEFDRPDIPMNKLLVSSLEGRVRCYDMRTLHPKLGYAYVEERVSEGTVWCSRALPQNREIFLSGGGGELTLCLYKYPPERTLKDGDGLQRGVAGAVEELNKAKIGDQPINAMDWNRSKEGLAVCASFDQSIRVMLVTKLGLLS”, the “soluble on expression in E. coli” value is recorded as “not soluble”.

For the sequence “TKDFEWKTTVTASHNANKLLSLSNDLYETSNQIDHAYLGEPINLSTQRMEVGRSMGQFYGMKSVGVSENGLWMVENTKTGEIEEFTDNMLSNDDYRQYLGNALPKLYLGWNNSFRYKNFDLSFQMTGQFGFKILNEPRAYYENNSIAYNRLKSVQKAPYGGQYTLSTAQKQTFVSYYLEDGDFLKMTNITLGYNIPLKSSKFVKNIRAYVSADNLFCITGYDGLDPEMSNGDIWSLGIDWRDKYPSTRSFTFGLNVSF”, the “soluble on expression in E. coli” value is reported as “not soluble”.

For “ASLYEKLGGAAAVDLAVEKFYGKVLADERVNRFFVNTDMAKQKQHQKDFMTYAFGGTDRFPGRSMRAAHQDLVENAGLTDVHFDAIAENLVLTLQELNVSQDLIDEVVTIVGSVQHRNDVLNR”, the “soluble on expression in E. coli” value was “soluble”.

Consider “MSKDEGKRKKESVVDLTRFLDKEIRVKFQGGREASGVLRGFDQLLNMVLDDCREYLRDPQNPSVVGDETRQLGLIVARGTAITVVSPADGLEQIANPFATQEEE”, for which the “soluble on expression in E. coli” value was “not soluble”.

For “MYLPIFCIFLSVVDSLRILQIVPGFTNSHVLFNYRLAETLRFLGHDVKMWTQMEMAMLDTGNNKLPEGVSEYRIPIHFTDTLKTEGLKVFQSMMFESGDAHDLWWTGQEFKDMRVEACEQMLRHDESVYEDFRKDGFDVAIAHFHDLCPLAIAKKMNVKRVIWITHGTSIYEFSAVQLGLRTIPSTIPHPLSSAGFSQLFLDRVQNTLWHLSLLDFVNLPQNLLVDENLFYREFVGADQDDLWDLAKTTVPSLLINGDRMLDFPRPLPIHIAFSGELGVSKGKKLVMEKWLEDIIEKPSDGLIVFSLGTVSNTTNMPAQMINSFLGAFGKLKTYTILWRMEKSVAGAEKYENLHLVKWLPQKDIMRHPKMKLMIAHGGYNSFLEAAQAGIPAVLMPLFADQKINAKRAQRYGMATVLDKLDLTINNVYGAIKEALKPEYSTNAKKLSAMLSDQVARKPYSALRYSLKLATSPKPSLFTLKSQHLSFLEFHNLDIFSIVLLTAFIVCF”, the “soluble on expression in E. coli” value is listed as “not soluble”.

Consider “LSFQDELMRALNPDVLVVQKRPEGVLPLDELVRRIEGAEPGRKVAFVWVEMDSDKAGRIFYTPPPGQRRGESRWIDPYTGAFVGEPRGEGFFNLMMQLHRFLAMGEYGKQV”, for which the “soluble on expression in E. coli” value is on record as “not soluble”.

Consider “MTTRTRILTGITTTGTPHLGNYAGAIRPAIVASRDSNADSFYFLADYHALIKCDDPLRIQRSRQEIAATWLAGGLDVERVTFYRQSDIPEIPELTWLLTCVAAKGLLNRAHAYKASVDKNVEAGEDPDAGITMGLYSYPVLMAADILMFNAHKVPVGRDQIQHVEMARDIGQRFNHLFGQGKEFFTMPEALIEESVATLPGLDGRKMSKSYDNTIPLFTSAKDMKDAISRIVTDSKAPGEAKDPDNSHLFTLYQAFSTPAQAAEFRSELLHGLGWGEAKNRLFQLLDAELGEARERYHQLIARPSDLEDILRAGAVKARAVATPFLNELREAVGLRSFAAQVQVAATTKKKAAKAARFISFREDDGSFRFRLLSADGEQLLLSRNFADGKAAGAVTKQLQSGQELDLRTEGNAFGIWLDGACVADSPDFADASARDAAVDALRIALTPAQDLEHHHHHH”, for which the “soluble on expression in E. coli” value was “soluble”.

As to “EMFYFEPVNIKKYLGSIGSELSDEVITIEQFFNLNSEYITIIDARSPREFSEKTISNAVNIPLFLTEEYETIGKLYKHEGKEVAIAKAGIIIQDGIKRIVSESLKLDPNKNLVVFCARGGMRSQSIATILKLLGFKVKRLVGGFKSYNISKT”, the “soluble on expression in E. coli” value was “not soluble”.

Take “MAHHHHHHMSFFRMKRRLNFVVKRGIEELWENSFLDNNVDMKKIEYSKTGDAWPCVLLRKKSFEDLHKLYYICLKEKNKLLGEQYFHLQNSTKMLQHGRLKKVKLTMKRILTVLSRRAIHDQCLRAKDMLKKQEEREFYEIQKFKLNEQLLCLKHKMNILKKYNSFSLEQISLTFSIKKIENKIQQIDIILNPLRKETMYLLIPHFKYQRKYSDLPGFISWKKQNIIALRNNMSKLHRLY”: the “soluble on expression in E. coli” value was “not soluble”.

With “MNIDVEFHIRHNYPWNKLPANVRQSLGNSQREYEKQVVLYSIRNQLRYRNNLVKHVKKDERRYYEELLKYSRDHLMLYPYHLSDIVCYVCL”, the “soluble on expression in E. coli” value was “not soluble”.

As to “DAIAVWGHRPSAAKPVAIAKAAGKPVIRLEDGFVRSLDLGVNGEPPLSLVVDDCGIYYDASKPSALEKLVQDKAGNAALADQAREAMHTIVTGDLSKYNLAPAFVADESERADIVLVVDQTFNDMSVTYGNAGPHEFAAMLEAAMEENPQAEIWVKVHPDVLEGKKTGYFADLRATQRVRLIAENVSPQSLLRHVSRVYVVTSQYGFEALLAGKPVTCFGQPWYAGWGLTDDRHPQSALLSARRGSATLEELFAAAYLRYCRYIDPLTG”, the “soluble on expression in E. coli” value was “not soluble”.

With “MPRRPGTPRGPQGGRRLLVISASMGAGHDTVAAELVRRARERGDTAQTVDVLALLPYGLGAVLRCFYRGSVRHFPWAYAALYRLFLRPGAGRRPSGTPLARLAGDRLRELAARTGADVVVPVFHLGAQLTGHLRDRGLLPVPSVVLVIDFELHRQWLHPGNDHCLCLTEEAAREARGNTGTPAETCGPVVAPEFSAGRVPGAAQWRETFDRLGPGRPAVVLSAGAWGVGSHLDATVRLLVDHGYLPVVLCGDNQRLRRTLSGTPGVLALGWVTDMPGLLHAARALIDNAAGQTAVQALAAGLPVVGHRPIPGHGADGVRRMAALGVSEVAEDRTALLEALARLTAPGPDRRRRIAAGRALFTGNADALTLVTDLADAARADVRRLEHHHHHH”, the “soluble on expression in E. coli” value is reported as “not soluble”.

Turning to “MNYIGSKYKLIPFIKENIHAVVGDNLSGTIFCDLFAGTGIVGRAFKKAVNKVISNDLEYYSFVLNQNYIGNIQEIPNQEELINEINSVALKKGFIYSYYSLGGSSRQYFSETNAQKIDAMRLKIEELKLSQNIDNCTYYFLLASLLESADKVANTASVYGAFLKRLKKSAQKELILKGADFDLSLNANEVYQQDASELIGKISGDILYLDPPYNARQYGANYHLLNTIAIYTPFAPKGKTGLPSYQKSSFCSRAKILNAFENLIKTARFKYIFLSYNNEGLMSETEIGNILKKYGTYSLMTKTYMRFKADNKRTHKAAHTKECLHILIK”, the “soluble on expression in E. coli” value is listed as “not soluble”.

Regarding “MFSGKRLKKRRITLGYSQSELADKLHINRSSYFNWENEKTKPNQSNLKQLAILLDVPETYFESEYKIVNTYLQLSLQNQEKVEKYAEELLQTQKVHEKIVPLFAVEVLSEIQLSAGPGEGLYDEFETETVYSEDEYTGFDIATWISGNSMEPVYKDGEVALIRSTGFDHDGAVYALNWNGSLYIKKLYREEDGFRMVSINPDVAERFIPFEDEIRIVGKIVGHFMPVIGGLEHHHHHH”, the “soluble on expression in E. coli” value is given as “soluble”.

As to “MSLKQEKLALVESALEDFYGDQQFASSLRESVLYSIHAGGKRIRPFLLLEVLEALQVTIKPAHAQVATALEMIHTGSLIHDDLPAMDDDDYRRGRLTNHKKFGEAMAILAGDALFLDSYALIAQADLPSQIKVDLIANLSLASGSLGMVAGQVLDMEGEHQHLSLEELQTIHANKTGKLLAYPFQAAAIIAELSPEMQVKLKTVGELIGLAFQVRDDVLDVTASFEEIGKTPQKDLQAEKSTYPALLGLEESIAFCNQTLDQANEKLEEIAQQLPFETESIVSVVESLRINGEGHHHHHH”, the “soluble on expression in E. coli” value is “soluble”.
